{
  "source": "patent US11384130B2",
  "about": "“Agent for promoting angiogenesis and methods and uses thereof” (Vasomune Therapeutics Inc., priority 2017, dated 2022)",
  "format_in_all_cases": "cell-based",
  "conditions_in_all_cases": "positive control",
  "key": {"Tie2 receptor [1]": {"system": "Tie2 receptor", "test": "Tie2 phosphorylation in primary cynomolgus monkey glomerular endothelial cells", "experimental": "Primary cynomolgus monkey glomerular endothelial cells (Cell Biologics) were cultured according to details provided above for HMVEC^tert. Tie2 activation studies performed on primary cynomolgus monkey glomerular endothelial cells were performed according to approaches detailed above for the rat primary glomerular endothelial cell studies."}, "Tie2 receptor [2]": {"target": "T1, Tie2 receptor (Rattus norvegicus, UniProt A0A8I5ZW61)", "T1 construct": "host or cells: primary rat glomerular endothelial cells", "T1 sequence (A0A8I5ZW61 20-1121)": "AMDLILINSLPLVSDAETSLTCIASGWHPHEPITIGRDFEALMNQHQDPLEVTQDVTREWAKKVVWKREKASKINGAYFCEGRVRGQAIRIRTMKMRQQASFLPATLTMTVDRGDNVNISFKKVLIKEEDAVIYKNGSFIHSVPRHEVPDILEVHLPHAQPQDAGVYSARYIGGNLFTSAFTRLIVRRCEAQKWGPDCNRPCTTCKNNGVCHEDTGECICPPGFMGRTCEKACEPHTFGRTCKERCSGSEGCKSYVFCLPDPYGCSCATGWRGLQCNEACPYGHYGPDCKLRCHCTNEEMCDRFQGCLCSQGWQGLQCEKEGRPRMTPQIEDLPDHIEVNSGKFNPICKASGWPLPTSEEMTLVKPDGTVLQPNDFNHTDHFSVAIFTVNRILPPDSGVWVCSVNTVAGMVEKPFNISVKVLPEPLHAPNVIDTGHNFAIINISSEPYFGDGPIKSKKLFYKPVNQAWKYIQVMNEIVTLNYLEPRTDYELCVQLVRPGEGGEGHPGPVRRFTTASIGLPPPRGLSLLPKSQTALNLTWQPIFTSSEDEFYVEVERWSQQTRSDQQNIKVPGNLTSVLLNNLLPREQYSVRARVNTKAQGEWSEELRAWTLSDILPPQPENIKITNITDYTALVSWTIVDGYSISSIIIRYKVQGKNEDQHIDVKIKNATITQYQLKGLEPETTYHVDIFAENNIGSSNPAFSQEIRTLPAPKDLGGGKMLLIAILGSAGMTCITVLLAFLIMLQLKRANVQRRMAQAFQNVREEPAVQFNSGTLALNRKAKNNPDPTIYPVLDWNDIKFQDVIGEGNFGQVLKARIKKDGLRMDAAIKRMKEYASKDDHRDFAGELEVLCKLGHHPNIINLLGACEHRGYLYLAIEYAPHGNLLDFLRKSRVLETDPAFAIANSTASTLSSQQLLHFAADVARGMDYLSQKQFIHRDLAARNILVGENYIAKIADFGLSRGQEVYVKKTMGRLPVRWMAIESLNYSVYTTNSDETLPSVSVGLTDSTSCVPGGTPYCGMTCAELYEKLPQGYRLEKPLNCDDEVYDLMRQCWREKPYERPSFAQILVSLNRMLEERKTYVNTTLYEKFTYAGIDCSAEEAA", "test": "Tie2 phosphorylation in primary rat glomerular endothelial cells", "experimental": "Rat primary glomerular endothelial cells (Cell Biologics) were grown in Complete rat endothelial cell medium/w kit (Cell Biologics) in 20% O2, 5% CO2 and 37° C. humidified chamber and split 1:3 once reaching 80-90% confluency. To examine the activation of Tie2 by MPA-Br in rat kidney glomerular endothelial cells, 95-100% confluent cells were stimulated with indicated concentrations of the test agent in serum-containing media for 15 minutes. Human Ang-1 (R&D Systems) was used as positive control. Cell lysates were collected using lysis buffer IC12 (detailed above) recommended in Human phospho-Tie-2 ELISA kit (R&D Systems), tyrosine-phosphorylated Tie2 and total Tie2 were measured using ELISA (Human phospho-Tie2 and total-Tie2 ELISA kits, R&D Systems) with substitution of capture antibody validated for rat Tie2. Mouse anti-Tie2 antibody (BD Pharmingen™) and rabbit TEK polyclonal antibody (MyBioSource) were used as capture antibody in pTie2 and total Tie2 ELISA, respectively. The level of Tie2 phosphorylation for all treatment groups was then normalized to that of the no treatment group (NT, complete rat endothelial cell medium) in each experiment."}, "Tie2 receptor [3]": {"target": "T2, Tie2 receptor (Canis lupus familiaris, UniProt A0A8I3P3D4)", "T2 construct": "primary cultured endothelial cells derived from canine aorta; host or cells: primary canine aortic endothelial cells", "T2 sequence (A0A8I3P3D4 entry or part of it)": "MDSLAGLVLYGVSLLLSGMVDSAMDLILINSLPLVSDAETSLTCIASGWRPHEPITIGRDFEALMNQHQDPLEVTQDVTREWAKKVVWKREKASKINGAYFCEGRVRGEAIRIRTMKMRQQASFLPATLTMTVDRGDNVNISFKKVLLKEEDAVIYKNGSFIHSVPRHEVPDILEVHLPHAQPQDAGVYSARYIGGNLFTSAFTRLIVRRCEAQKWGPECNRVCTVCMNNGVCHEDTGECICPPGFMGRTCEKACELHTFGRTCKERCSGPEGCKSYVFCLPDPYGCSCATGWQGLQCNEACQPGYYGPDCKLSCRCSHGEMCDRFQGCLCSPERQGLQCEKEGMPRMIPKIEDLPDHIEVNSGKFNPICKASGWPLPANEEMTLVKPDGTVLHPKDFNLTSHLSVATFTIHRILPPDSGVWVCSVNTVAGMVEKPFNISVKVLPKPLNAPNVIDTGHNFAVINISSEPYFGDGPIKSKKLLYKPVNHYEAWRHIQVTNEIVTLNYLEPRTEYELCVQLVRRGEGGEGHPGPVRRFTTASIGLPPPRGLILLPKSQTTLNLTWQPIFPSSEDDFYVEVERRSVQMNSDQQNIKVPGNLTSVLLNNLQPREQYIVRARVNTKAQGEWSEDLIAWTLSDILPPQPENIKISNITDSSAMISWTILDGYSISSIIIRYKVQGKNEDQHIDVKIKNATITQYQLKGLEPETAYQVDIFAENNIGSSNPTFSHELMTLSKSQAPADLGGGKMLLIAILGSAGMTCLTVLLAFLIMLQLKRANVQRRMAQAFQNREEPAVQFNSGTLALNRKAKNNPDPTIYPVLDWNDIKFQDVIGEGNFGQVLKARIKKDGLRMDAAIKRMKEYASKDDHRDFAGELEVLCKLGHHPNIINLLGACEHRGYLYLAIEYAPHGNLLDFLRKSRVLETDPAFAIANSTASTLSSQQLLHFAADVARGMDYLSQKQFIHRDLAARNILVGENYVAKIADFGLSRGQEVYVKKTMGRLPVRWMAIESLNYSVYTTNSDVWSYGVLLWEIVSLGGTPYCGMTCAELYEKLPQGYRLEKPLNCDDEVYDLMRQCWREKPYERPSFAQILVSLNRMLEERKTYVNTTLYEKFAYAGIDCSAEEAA", "test": "Tie2 phosphorylation in primary canine aortic endothelial cells", "experimental": "Canine primary aortic endothelial cells (Cell Biologics) were grown in Complete canine endothelial cell medium/w kit (Cell Biologics) in 20% O2, 5% CO2 and 37° C. humidified chamber and split 1:3 once reaching 80-90% confluency. Tie2 activation studies performed on primary cynomolgus monkey glomerular endothelial cells were performed according to approaches detailed above for the rat primary glomerular endothelial cell studies."}},
  "data": [
    {"molecule": "human recombinant Ang1: human recombinant angiopoietin 1 (R&D Systems), positive control for Tie2 and MAPK activation (protein, UniProt Q15389 16-498, looked up) Angiopoietin-1: HIGCSNQRRSPENSGRRYNRIQHGQCAYTFILPEHDGNCRESTTDQYNTNALQRDAPHVEPDFSSQKLQHLEHVMENYTQWLQKLENYIVENMKSEMAQIQQNAVQNHTATMLEIGTSLLSQTAEQTRKLTDVETQVLNQTSRLEIQLLENSLSTYKLEKQLLQQTNEILKIHEKNSLLEHKILEMEGKHKEELDTLKEEKENLQGLVTRQTYIIQELEKQLNRATTNNSVLQKQQLELMDTVHNLVNLCTKEGVLLKGGKREEEKPFRDCADVYQAGFNKSGIYTIYINNMPEPKKVFCNMDVNGGGWTVIQHREDGSLDFQRGWKEYKMGFGNPSGEYWLGNEFIFAITSQRQYMLRIELMDWEGNRAYSQYDRFHIGNEKQNYRLYLKGHTGTAGKQSSLILHGADFSTKDADNDNCMCKCALMLTGGWWFDACGPSNLNGMFYTAGQNHGKLNGIKWHYFKGPSYSLRSTTMMIRPLDF", "values": [
      {"measurement": "Tie2 phosphorylation compared to no treatment", "setting": "Tie2 receptor [1]", "result": "significant increase in baseline Tie2 phosphorylation"},
      {"measurement": "Tie2 phosphorylation compared to no treatment", "setting": "Tie2 receptor [2]", "result": "significant increase in baseline Tie2 phosphorylation"},
      {"measurement": "Tie2 phosphorylation compared to no treatment", "setting": "Tie2 receptor [3]", "result": "significant increase in baseline Tie2 phosphorylation"}
    ]}
  ]
}
